# Experimental data as given in a protein production outcome set (Wang et al. 2014).
# Assay: label from the status in PepcDB records
row,Sequence,protein production
1,MSTSQGSPNWPRAERVARLEVLETQILARPAEVYAEVLALWPGLSAAVPSPASPAPDSCPGPSELAAQATALQLLSRCAVLLGEDGAAANHAETGRRLAHDLGLRSLEARCLEVLGVVRGRQGDVKQAAWLLRRSLYLLHALGDTPGQGRLLGRVGDLLERLEEYPQALLFYRAGLAQLPAARPVTAAVQVGLARTLHQLGEYAESQELAAQALAVCQEVGLPQLEAQVQLQQALTQLALGELDASRRHAEQAQALAAPRHAEQAQALAAPLEHTVPGAAAWVLGEAALVRGDLAQAREGLGRAEELANTPPLLARVRGSQSRLYEQLGDPAQALRCLREQRELEQQHRARLAEQRAGLLAEQIRYEVLRREAELQRKRRNERAQAASALRETRVELSRQASHDQLTGLANRSFFYTRARQALDLLAPGRSLGLIVADIDHLKAINDRFGYAVGDLLITELARRLCEAVRPGDLVGRLSGDEFVMLLSDLASPGDLRLVAERLLQQLREPCVCGTELVVPTVSLGYVVAPQDGGDVELLQKRADLALFQAKAQGRNMAVAFAGDMSAEEEERRMLSQDLRHAVRHGQLQLHYQGIFLLPGQRLSGFEALVRWPHPKRGMIPPDRFIALAEESRLILELGRWVLDEACRQARAWQLPERGLTMAVNVSALQFEQSDFVAGVRACLEQHGLPGHSLVLELTESMVHRDPRLAKQTLRELQALGVKVAMDDFGTGYSSLSMLKSLPFGLLKIDREFLQDLSAASEQFAASQQFIEVMVRLAHNLQMRVVAEGVETAEQYDLLCGMGCDEAQGYWLARPLPPAEAAALLPAGAPDSPWPTQSPSSQQARQESPRQSLSED,failed
2,MSTSSTQHAAPAFTGFSSSAQAMSLVAFTTVATITLLLCVMTGPDRDDLEEFYTGYGSLSPMRNGLAIAGDYISAATVLGTGGVIALTGYDGVVLALSTALSLMLLMFLLAEPLRNAGQFTMGDALARRMPGRAVRVTACVVTIAALLPLMLVQLAGTGDLLSFILGFSNDTLKTGCIIGLGALMISYAAIGGMKGTALIQIMKIVMLLGSGAVVAVLILHRFDWDPGALFSAAAAHSGAGPAFLRSGLEFAGGPNPRLDMITTELTVVLGGGCLPHVTMRMYTANSARQVRRSMSWAVPAVALFVLVITVVGFGATALVGREAIAAADPQGNTAYLLGSRAAFGPDVSSAETLLFTTVTTALFLTLLASVAGMILACANSLAHDVFAARVQEMSPRREMTLARLSALAVGVPTILLATLVHHRSLQPLVTLSFCIGASAIAPALVYGLFWRRYTRTGLLCTLIGGTLSVVLLLPGTNLVTGSPAAAFPDADFNWFPFTTTGLATIPLGFLLGWLGTLLSGRQKAEAQRRQYEAVEGWILAGAVRRSG,failed
3,MSTSTSCPIPGGRDQLPDCYSTTPGGTLYATTPGGTRIIYDRKFLLECKNSPIARTPPCCLPQIPGVTTPPTAPLSKLEELKEQETEEEIPDDAQFEMDI,failed
4,MSTSYQHSGPEFTEAQMQAMVDGLFAGASIGAVCNMQQEQLEAGYALAYNLYTAGNYRDAETMFRALCVYDHNDERYWLGLAGCRQAQGDLAGAIDAYGLAGAASALGDPAPFVHAGICYMKLGDTENARNTFAGVPFIGDPDNDTHAAMHRKAEAMLELLAGERP,failed
5,MSTTDDSYIVVNNEAAGKVSLKEKWWHVLDTYKVGIIPVPLFVLAGVLIGIDCLSGKLPSDIVVMVATLAFFGFACGEFGKRLPIIGKMGAAAICATFIPSAMVHYGLLPDVVVESTTKFYKSTNILYLYICCIIVGSIMSMNRQTLIQGFMRIFFPMLCGEIAGMLVGMGVGIALGLDPFQIFFFLILPIMAGGVGEGAIPLSIGYATILHMDQGVALGRVLPIVMLGSLTAIILAGVLNQLGKRYPHLTGEGELMPNKGNNLGGSESSAPASAFSGKADVTTIASGALLAILLYMVGMLGHKMIGLPAPVGMLFAAVVVKLAHGVSPKMLEGSQVVYKFFQTSVTYPILFAVGVAITPWQELVNAFTIQNLLVIISTVVTLVGTGFLVGRKIGMHPIDVAIISCCQSGQGGTGDVAILTAGNRMMLMPFAQIATRIGGAINVSISLLVLANFLV,failed
6,MSVALPRSPDVDGSLSEAPNRIDVVTFGCRLNTYESEVMRREAESAGLGALQGGAVIFNTCAVTGEAVRQARQAIRKARRDNPGARIIVTGCAAQTEPEKFAAMDEVDLVLGNEEKLKANSYRALPDFGVNDTEKARVNDIFSVRETAGHMVDAIEGRARAFVQVQNGCDHRCTFCIIPYGRGNSRSVPMGAVVEQVKRLAGNGYAEIVLTGVDMTSFGADLPGAPKLGRLVKTILKQVPDVKRLRLSSIDSIEADDDLLDAIATEPRLMPHLHLSLQSGDDMILKRMKRRHLRDQSIRFCEDVRKLRPEIVFGADIIAGFPTETDAMFENSIKIVEECGLTHLHVFPFSPREGTPAARMPQVRREVVKQRAARLRAAGEAAYRRHLSSLPGTRQSILIERDGLGRTEGFTLAALGTGAPGEIVEATITGHDGARLNAVPLAARAA,failed
7,MSVETQRESLLNAPALLFMSAVVLIAFWILFPRQPAFRDPANLSAKDALSVAYLRVLVQSDPGNAPLRLSFVQVLTEAGMTDEAVLAMEPLQNAPESGLTYEIRLAELKLALQQLYRHPPRDVEASLRRRIGELVPLLLRLADNDKESNQVVLLAEQFGEPSVVAETFEQLAGMQNETRQTKSRWLAFAAKQRLAAAQPRAAAQNFCRAFTFERIARKKTELAKACLGAYLQAGVDREALKAAMQILSAYSSSNADAQLLLLAADVAQPMGDRDHALVWLEQASAHLPADQRLAERVVRLQVSMGLLSEGLARAPMLRASLIPGSERQRLLAHLYDWNGQPDEALALWLSFARHKADEEAETRAFALAQAKPDNEAIVQLLEAVMSRRKLTTTEADAYVKAGLAVAQPSRVEKQLRRHAERFGNPPPILNALVEVLVLQGKPDAALTLYEDMPEIQDGRQRLALARLYEEAGNTQKSFQLLLRDIDSPPPASAEEYWLLLAKVSTQLGQDAYAGQAYEKALALRSNDVEILENLQRLALRHHDEKKSERLARYGWERLKRIEDLQRLMRFSWKRRNWDELDQWLEVAEKLPSAAQARDYWYFQSMRRMAHGEQSAARGALQEILKLQAADPEVTEAMIWLLLAYEKIDRVLLDSVVAPYRAQTASQSTVNPALAEALAAAEQGLGRPVQAAAWFLRSLSTRAGDFLWILALADNMEWAGCPAHANYARFQALEMFASRQNSRIEVKYPSRLAEYFFGSKYLPPKREGTEDAKKQEELQSIRDQWGFGGKLDNADYFALRREVERLELSQWKDFAKAVRNRNEREVERQLALISDHLKRQPAAASHPDMLPLSIDDVDRANRWLAGEPEPNPSDLATELDICRETLTKIREFPVNSEPAKR,failed
8,MSVFTPLARPELETFLAPYGLGRLLDYQGIAAGSENTNYFISLEQGEFVLTLVERGPVQEMPFFIELLDVLHDANLPVPYALRTTDGQALRELAGKPALLQPRLPGKHISEPNTQHCVQIGELLANLHLATREQVLERKTDRGLDWMLSEGRNFLSHLGETQRALLEKSLQEIEDLKPQIMALPRANLHADLFRDNVLFEGTHLTGLIDFYNACSGPMLYDLAIALNDWCSRENGQLDAVRARALLGAYAGLRPFTAAESKLWATMLRIACVRFWLSRLIAAETFAGQDVLIHDPVEFEQRLAERQTPHIALPFAL,not failed
9,MSVIKIEKALKLDKVIFVDVRTEGEYEEDHILNAINMPLFKNNEHNEVGTIYKMQGKHEAIQKGFDYVSYKLKDIYLQAAELALNYDNIVIYCARGGMRSGSIVNLLSSLGVNVYQLEGGYKAYRNFVLEYLRHVMDTK,not failed
10,MSVKKERVDVLLVERGLIETREKAKRAIMAGLVYANEMRLDKPGEKISQDTEITVKGQVMPYVSRGGYKLEKALETFHLDLQDKVMIDIGSSTGGFTDCALQNGAKLSYALDVGYNQLAWKLRQDERVVVMERTNFRYVTPADLERGLPQFASIDVSFISLKLILPVLKTMLMPNGDVAALIKPQFEAGREQVGKKGIVRDRKVHEAVVEMIVEFALKEGYDVEGLTFSPITGGDGNIEFLIHLKWHGERENGENHSPISIEQVVTEAHEVLKQKGKGE,failed
11,MSVLDISIIIANYNTEEFLRNCLNSIKSTVKNVKYEVIVTDNNSKDDSVTMIKNEFPWVKLIESKINGGFAYANNLAIKESSGKYIFLLNTDTVLLKDVIEKMVNYMDENKDVGLLGPKLLNRDMSHQTSVSGFPSFKREFYHIYKLKNILKIPILKKIIVAMSGKIGSKDVEQYMMNFKSIDEPREVQVLVGAALLVRRNVIDKIGMLDERYFMYYEEIDFCYQANKAGFKAVYYPNGEIIHYIGQAATKSRILEHHHHHH,not failed
